Measured values taken from patent publication US11957762B2, “Immune tolerant and non-immune tolerant elastin-like recombinant peptides and methods of use” (University of Utah Research Foundation, priority 2015, dated 2024).
Values joined by “and” are separate entries in the source; they are usually repeats but may differ in a detail not shown here. Equal values may be shown once.

B1: NH2-(GAGVPG)70-(…)8-COOH (protein)
chain: GGAGVPGGAGVPGGAGVPGGAGVPGGAGVPGGAGVPGGAGVPGGAGVPGGAGVPGGAGVPGGAGVPGGAGVPGGAGVPGGAGVPGGAGVPGGAGVPGGAGVPGGAGVPGGAGVPGGAGVPGGAGVPGGAGVPGGAGVPGGAGVPGGAGVPGGAGVPGGAGVPGGAGVPGGAGVPGGAGVPGGAGVPGGAGVPGGAGVPGGAGVPGGAGVPGGAGVPGGAGVPGGAGVPGGAGVPGGAGVPGGAGVPGGAGVPGGAGVPGGAGVPGGAGVPGGAGVPGGAGVPGGAGVPGGAGVPGGAGVPGGAGVPGGAGVPGGAGVPGGAGVPGGAGVPGGAGVPGGAGVPGGAGVPGGAGVPGGAGVPGGAGVPGGAGVPGGAGVPGGAGVPGGAGVPGGAGVPGGAGVPGGAGVPGGAGVPGGAGVPGGGVLPGVGGVLPGVGGVLPGVGGVLPGVGGVLPGVGGVLPGVGGVLPGVGGVLPGVGGVLPGVGGVLPGVGGVLPGVGGVLPGVGGVLPGVGGVLPGVGGVLPGVGGVLPGVGGVLPGVGGVLPGVGGVLPGVGGVLPGVGGVLPGVGGVLPGVGGVLPGVGGVLPGVGGVLPGVGGVLPGVGGVLPGVGGVLPGVGGVLPGVGGVLPGVGGVLPGVGGVLPGVGGVLPGVGGVLPGVGGVLPGVGGVLPGVGGVLPGVGGVLPGVGGVLPGVGGVLPGVGGVLPGVGGVLPGVGGVLPGVGGVLPGVGGVLPGVGGVLPGVGGVLPGVGGVLPGVGGVLPGVGGVLPGVGGVLPGVGGVLPGVGGVLPGVGGVLPGVGGVLPGVGGVLPGVGG
B2: G(GVLPGVG)28GG (protein)
chain: GGAGVPGGAGVPGGAGVPGGAGVPGGAGVPGGAGVPGGAGVPGGAGVPGGAGVPGGAGVPGGAGVPGGAGVPGGAGVPGGAGVPGGAGVPGGAGVPGGAGVPGGAGVPGGAGVPGGAGVPGGAGVPGGAGVPGGAGVPGGAGVPGGAGVPGGAGVPGGAGVPGGAGVPGGAGVPGGAGVPGGAGVPGGAGVPGGAGVPGGAGVPGGAGVPGGAGVPGGAGVPGGAGVPGGAGVPGGAGVPGGAGVPGGAGVPGGAGVPGGAGVPGGAGVPGGAGVPGGAGVPGGAGVPGGAGVPGGAGVPGGAGVPGGAGVPGGAGVPGGAGVPGGAGVPGGAGVPGGAGVPGGAGVPGGAGVPGGAGVPGGAGVPGGAGVPGGAGVPGGAGVPGGAGVPGGAGVPGGAGVPGGAGVPGGAGVPGGAGVPGGG
B3: iTEPB-pOVA: a fusion of the hydrophilic iTEPB and the vaccine, soluble (SEQ ID NO: 57) (protein)
chain: GAGVPGGAGVPGGAGVPGGAGVPGGAGVPGGAGVPGGAGVPGGAGVPGGAGVPGGAGVPGGAGVPGGAGVPGGAGVPGGAGVPGGAGVPGGAGVPGGAGVPGGAGVPGGAGVPGGAGVPGGAGVPGGAGVPGGAGVPGGAGVPGGAGVPGGAGVPGGAGVPGGAGVPGGAGVPGGAGVPGGAGVPGGAGVPGGAGVPGGAGVPGGAGVPGGAGVPGGAGVPGGAGVPGGAGVPGGAGVPGGAGVPGGAGVPGGAGVPGGAGVPGGAGVPGGAGVPGGAGVPGGAGVPGGAGVPGGAGVPGGAGVPGGAGVPGGAGVPGGAGVPGGAGVPGGAGVPGGAGVPGGAGVPGGAGVPGGAGVPGGAGVPGGAGVPGGAGVPGGAGVPGGAGVPGGAGVPGGAGVPGGAGVPGGAGVPGGAGVPGCGGGGGGGGCGGGGGGGGCGGGGGGGGCGGGGGGGGCGGGGGGGGCGGGGGGGGCGGGGGGGGCGGGGGGGG
B4: G(GAGVPG)70GG (protein)
chain: GVPGFGAGAGVPGFGAGAGVPGFGAGAGVPGFGAGAGVPGFGAGAGVPGFGAGAGVPGFGAGAGVPGFGAGAGVPGFGAGAGVPGFGAGAGVPGFGAGAGVPGFGAGAGVPGFGAGAGVPGFGAGAGVPGFGAGAGVPGFGAGAGVPGFGAGAGVPGFGAGAGVPGFGAGAGVPGFGAGAGVPGFGAGAGGG
B5: ovalbumin (protein)
chain: GSIGAASMEFCFDVFKELKVHHANENIFYCPIAIMSALAMVYLGAKDSTRTQINKVVRFDKLPGFGDSIEAQCGTSVNVHSSLRDILNQITKPNDVYSFSLASRLYAEERYPILPEYLQCVKELYRGGLEPINFQTAADQARELINSWVESQTNGIIRNVLQPSSVDSQTAMVLVNAIVFKGLWEKAFKDEDTQAMPFRVTEQESKPVQMMYQIGLFRVASMASEKMKILELPFASGTMSMLVLLPDEVSGLEQLESIINFEKLTEWTSSNVMEERKIKVYLPRMKMEEKYNLTSVLMAMGITDVFSSSANLSGISSAESLKISQAVHAAHAEINEAGREVVGSAEAGVDAASVSEEFRADHPFLFCIKHIATNAVLFFGRCVSP
notes: positive control protein antigen

Assays:
[1] = Thermally-induced reversible phase transition (turbidity OD350 vs temperature); assay type: physicochemical; conditions: for Tt (cooling) / Tt (heating): 25 μM in H2O
Text: Characterization of thermally-induced, reversible, inverse phase transition of iTEPs and the iTEPB-iTEPA-pOVA fusion. The phase transitions of iTEP or iTEP fusions were characterized by turbidity changes of sample solutions as a function of temperature. Specifically, the optical density at 350 nm (OD350) of a sample solution was monitored using an UV-visible spectrophotometer equipped with a multi-cell thermoelectric temperature controller (Cary 300, Varian Instruments, Walnut Creek, CA) while the solution was heated from 20° C. to 80° C. and then cooled to 20° C. at a rate of 1° C./min. The maximum first derivative of the turbidity curve of a sample was identified. The transition temperature (Tt) of the sample is the temperature that corresponds to the maximum derivative.

[2] = Hydrodynamic diameter by dynamic light scattering (DLS); assay type: physicochemical
Description: Characterization of the size of iTEPB-pOVA and iTEPB-iTEPA-pOVA fusions. The particle size distribution of the iTEP fusions was determined by dynamic light scattering (DLS) using a Zetasizer Nano-ZS instrument (Malvern Instruments, Malvern, UK) as previously described.^(29) The fusions were prepared at 5 μM and 25 μM in PBS and equilibrated at 37° C. for the measurement. The reported results represented the average particle size by number.
Dynamic light scattering (DLS) measurement. The measurement was carried out as previously described. iTEP, iTEP-MPBH-ABA-Sali conjugate, or PTX NP were measured at 25 μM in PBS at 37° C. using a Malvern Zetasizer Nano system (Malvern, Chester County, PA, USA).
Characterization of hydrodynamic diameters of iTEP-vaccine fusions. Hydrodynamic diameters of iTEP-vaccine fusions were determined by dynamic light scattering (DLS) using a Zetasizer Nano-ZS instrument (Malvern Instruments, Malvern, UK) as previously described (Zhao et al., Mol Pharm, 2014; 11(8):2703-12). The samples were resuspended at concentrations of 5, 25, 50, and 100 μM in PBS and sat at room temperature overnight before measurement. Some samples were kept in 5% C02 at 37° C. for 16 h before DLS measurement. Hydrodynamic diameter results of the sample of 5 μM concentration were reported because they were not affected by the used sample concentrations. Hydrodynamic diameters were presented using the size-by-number distribution approach. Z-average values and sizes-by-intensity data, however, were also reported.

C57BL/6 mice = assay: In vivo CTL response by ELISPOT IFN-γ assay; parameters: species or system mouse; conditions: subcutaneous immunization twice, 2 nmol SIINFEKL equivalents per mouse with IFA
Text: in vivo CTL response by ELISPOT IFN-γ assay. C57BL/6 mice were immunized subcutaneously with each immunogen (2 nmol […] equivalents per mouse) together with incomplete Freunds Adjuvants (IFA; Sigma, USA) at their left flanks. The immunization was repeated at their right flanks 1 week later. At 10 days after the second immunization, mice were sacrificed, and the spleens were harvested. The spleens of the sacrificed mice were teased into single-cell suspensions and filtered through nylon mesh […]. Red blood cells were lysed by Ammonium-Chloride-Potassium (ACK) lysing buffer. The washed and resuspended single cells were counted using Contess™ Automated Cell Counter (Invitrogen, USA). Splenocytes (8×10^6/mL) were incubated in RPMI-1640 medium supplemented with 10% heat inactivated fetal calf serum, 2 mM glutamine, 100 units/mL penicillin and 100 μg/mL streptomycin (Invitrogen, USA), in a 14 mL polypropylene tissue culture tube for 48 hours, with or without […] peptide (SEQ ID NO: 22) (2.5 μg/mL). The cells were then washed and recounted. 2×10^5 live cells in 100 μL medium were then loaded into wells of 96-well Filtration plates (Millipore, USA) coated with […] of capture anti-mouse IFN-γ mAb (Clone: R4-6A2, Biolegend, USA). Triplicates were set up for each condition. Cells were discarded after 24 hours of culture and the wells were incubated with […] of detectionbiotinylated, anti-mouse IFN-γ mAb overnight (Clone: XMG1.2-Biotin, Biolegend, USA). After the unbound antibodies were washed away from the wells, the bound antibodies were detected using horseradish peroxidase (HRP Avidin, Biolegend, USA) together with 3-amino-9-ethyl-carbazole (AEC) substrate (Sigma, USA). The membranes on the bottom of the wells were peeled off, and color spots on the membrane were scanned. The spots were automatically counted using ImageJ software.
Animal immunization. C57BL/6 mice were immunized by the subcutaneous injection of 2 nmol iTEP NP vaccines and incomplete Freunds Adjuvants (IFA; Sigma, USA) at their left flanks. Immunization was repeated at their right flanks after 1 week. On day 10 after the second immunization, mice were sacrificed, and the spleens were harvested.

| Molecule | Relative Hydrophobicity [1] | Tt (cooling) [1] [°C] | Tt (heating) [1] | also measured |
| --- | --- | --- | --- | --- |
| G(VPGLGAGAG)96GG [iTEPD] | High | 35.20 ± 0.57 | 38.6 °C and 38.60 ± 1.20 °C | (heating) Tt ([1]; 5 μM): 42.3 °C |
| B1 | – | – | – | hydrodynamic diameter (DLS) ([2]; 25 μM in PBS at 37° C.): 6.63±1.25 nm |
| B2 | High | 29.70 ± 0.05 | 33.30 ± 0.09 °C | – |
| B3 | – | – | – | mean diameter / size (DLS) ([2]; 25 μM in PBS, 37° C., by number): less than 10 nm |
| B4 | Low | – | – | temperature of coacervate formation ([1]; in H2O, tested temperature range 20-80° C.): did not form coacervates |
| B5 | – | – | – | SIINFEKL-restricted activated splenocytes (INF-γ ELISPOT) (C57BL/6 mice): 61 spots per million seeded splenocytes |
